Reference: patent US20230312724A1 (KADMON, published 2023)
Substitutions are numbered along the chain they refer to. Where two headings read alike, the source gives them in different places. One block for each binder: values may come before it.

Key:
[1] = target: T1, IgC domain of mouse B7-H4-Fc (mouse; human); test: ELISA, coated mB7-H4 IgC domain (title on the sheet: IgC domain of mB7H4)
T1 construct: also called mB7-H4 IgC domain
Method: (§1) About 1-2 μg/ml of human or mouse B7-H4-Fc (or his-tagged) was immobilized on ELISA plates (Immuno 2HB, Thermo scientific, cat #3455) at 4° C. overnight. After blocking the plates with 3% PBS+milk, serial diluted antibodies were added to the blocked plates and incubated at RT for 1-1.5 h. After washing the plates with PBS-T (0.05%), horse radish peroxidase (HRP)-conjugated antibody targeting the hFab was added to the plate. Signals were developed by adding 3,3′,5,5′-Tetramethylbenzidine (TMB (followed 1N of H₂SO₄ to stop the reaction. The OD at 450 nm was read by ELISA plate reader (Infinite M1000 from TECAN). GraphPad from Prism was used to plot OD450 vs. antibody concentration curve and to calculate the EC50 values.

[2] = target: T2, hB7-H4 (soluble human B7-H4, construct not named) (human, UniProt Q7Z7D3 25-259, limits assumed); test: SPR (Biacore)
T2 construct: also called soluble hB7-H4
T2 sequence: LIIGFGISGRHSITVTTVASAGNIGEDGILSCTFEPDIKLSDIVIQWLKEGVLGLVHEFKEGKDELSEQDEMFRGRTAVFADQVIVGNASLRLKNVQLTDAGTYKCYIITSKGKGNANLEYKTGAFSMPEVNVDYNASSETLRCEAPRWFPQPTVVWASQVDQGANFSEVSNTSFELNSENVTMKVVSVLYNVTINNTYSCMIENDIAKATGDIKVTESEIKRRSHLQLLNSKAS
Method: (§2) Surface plasmon resonance experiments were performed using a Biacore T200 instrument equipped with CM5 sensor chips. The system was equilibrated in running buffer HBS-EP pH 7.4. The ligands were immobilized using amine-coupling chemistry. The surfaces of flow cells one through four were activated for 5 min using an amine coupling kit at a flow rate of […]. The ligands (human B7-H4-Fc, human B7-H4-hism and mouse B7-H4-Fc; at a concentration of 5 μg/ml in 10 mM sodium acetate, pH 5.0) were immobilized at a density of 50-100 RU on flow cell 2, 3, 4 respectively. Flow cell 1 was left blank to serve as a reference surface. All flow cell surfaces were blocked with a 5 min injection of 1 M ethanolamine, pH 8.0. To collect kinetic binding data, the respective analyte (diluted in 1×HBS-EP buffer, pH 7.4) was injected over the four flow cells at concentrations of 100 nM to 0.1 nM at a flow rate of […] and at a temperature of 25° C. The protein complex was allowed to associate and dissociate for 180 seconds and 1000 or 1200 seconds, respectively. The surfaces were regenerated with a 30 second injection of 1.5 M NaCl/0.05 M NaOH. The data were fit to a simple 1:1 interaction model using the Langmuir fit option available within the Biaevaluaton software

[3] = target: T3, human B7-H4 expressed on cells (human, UniProt Q7Z7D3 25-282); test: flow cytometry, SK-BR-3 cells
T3 construct: Transfected CHO cells or tumor cell lines that carry hB7-H4; also called cellular hB7-H4
T3 sequence: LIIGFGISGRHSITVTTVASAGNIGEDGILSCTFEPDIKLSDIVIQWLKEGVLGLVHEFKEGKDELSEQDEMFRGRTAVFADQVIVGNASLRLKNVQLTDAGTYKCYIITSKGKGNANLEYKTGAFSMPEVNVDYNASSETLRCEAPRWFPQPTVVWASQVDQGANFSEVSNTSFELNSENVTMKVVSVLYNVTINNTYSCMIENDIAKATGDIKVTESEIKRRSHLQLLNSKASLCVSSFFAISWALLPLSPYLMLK
Method: (§3) Cells were harvested, washed once, and then re-suspended to the concentration of 1×10⁶ cells/ml in ice cold FACS Buffer. 25 μl of cell suspension was added to each well of a 96-well round-bottom microliter plate. Serially diluted antibodies or fusion proteins were added to each well and incubated for 1 hour at 4° C. Cells were washed three times by centrifugation at 1500 rpm for 5 minutes, and then stained with secondary antibody (1:200 dilution) for 30 min at 4° C. in the dark. Cells were washed once, re-suspended in 100 μl PBS buffer and then analyzed using Guava Flow Cytometry EasyCyte system.

[4] = target: T2, hB7-H4 (soluble human B7-H4, construct …); test: ELISA, hB7-H4
Method: as §1

[5] = target: T4, IgC domain of human B7-H4-Fc (human); test: ELISA, coated hB7-H4 IgC domain (title on the sheet: IgC domain of hB7H4)
T4 construct: also called hB7-H4 IgC domain
T4 sequence (chain, as listed by the source): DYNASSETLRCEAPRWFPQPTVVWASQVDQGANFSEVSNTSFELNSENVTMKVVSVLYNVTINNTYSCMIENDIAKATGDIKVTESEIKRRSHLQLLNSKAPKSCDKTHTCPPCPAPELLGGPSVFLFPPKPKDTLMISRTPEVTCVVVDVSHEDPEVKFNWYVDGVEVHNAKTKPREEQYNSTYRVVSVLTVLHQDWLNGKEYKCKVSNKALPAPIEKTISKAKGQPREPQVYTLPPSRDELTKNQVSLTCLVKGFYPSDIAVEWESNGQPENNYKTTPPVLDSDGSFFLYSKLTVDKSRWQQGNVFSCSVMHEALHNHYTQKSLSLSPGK
Method: as §1

[6] = target: T5, mouse B7-H4 expressed on cells (mouse, UniProt Q7TSP5 25-257); test: flow cytometry, CHO cells expressing mB7-H4
T5 construct: also called cellular mB7-H4; mB7-H4/CT26
T5 sequence: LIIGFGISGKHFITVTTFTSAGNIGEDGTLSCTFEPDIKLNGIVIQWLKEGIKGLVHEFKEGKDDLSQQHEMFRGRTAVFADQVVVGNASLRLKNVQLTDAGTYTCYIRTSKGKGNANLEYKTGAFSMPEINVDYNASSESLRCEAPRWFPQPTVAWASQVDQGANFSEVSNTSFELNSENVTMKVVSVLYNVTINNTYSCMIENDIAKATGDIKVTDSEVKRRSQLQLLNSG

[7] = target: T6, IgV domain of mouse B7-H4-Fc (mouse; human); test: ELISA, coated mB7-H4 IgV domain
T6 construct: also called mB7-H4 IgV domain
T6 sequence (chain, as listed by the source): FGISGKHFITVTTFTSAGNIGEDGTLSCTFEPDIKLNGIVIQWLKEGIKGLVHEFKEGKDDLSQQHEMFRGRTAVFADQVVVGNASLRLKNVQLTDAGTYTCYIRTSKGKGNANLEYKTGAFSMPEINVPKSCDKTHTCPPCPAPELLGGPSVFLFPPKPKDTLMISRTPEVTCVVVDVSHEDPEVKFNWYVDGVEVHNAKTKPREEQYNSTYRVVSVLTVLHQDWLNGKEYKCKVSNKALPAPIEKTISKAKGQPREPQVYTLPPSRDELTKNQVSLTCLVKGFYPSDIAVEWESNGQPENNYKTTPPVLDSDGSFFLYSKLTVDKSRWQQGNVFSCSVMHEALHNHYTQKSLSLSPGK
Method: as §1

[8] = target: T1, IgC domain of mouse B7-H4-Fc; test: ELISA, coated mB7-H4 IgC domain
[9] = target: T7, mouse B7-H4-Fc (mouse; human); test: ELISA, coated mB7-H4-Fc
T7 construct: also called mB7-H4-Fc; mB7-H4-hFc
T7 sequence (chain, as listed by the source): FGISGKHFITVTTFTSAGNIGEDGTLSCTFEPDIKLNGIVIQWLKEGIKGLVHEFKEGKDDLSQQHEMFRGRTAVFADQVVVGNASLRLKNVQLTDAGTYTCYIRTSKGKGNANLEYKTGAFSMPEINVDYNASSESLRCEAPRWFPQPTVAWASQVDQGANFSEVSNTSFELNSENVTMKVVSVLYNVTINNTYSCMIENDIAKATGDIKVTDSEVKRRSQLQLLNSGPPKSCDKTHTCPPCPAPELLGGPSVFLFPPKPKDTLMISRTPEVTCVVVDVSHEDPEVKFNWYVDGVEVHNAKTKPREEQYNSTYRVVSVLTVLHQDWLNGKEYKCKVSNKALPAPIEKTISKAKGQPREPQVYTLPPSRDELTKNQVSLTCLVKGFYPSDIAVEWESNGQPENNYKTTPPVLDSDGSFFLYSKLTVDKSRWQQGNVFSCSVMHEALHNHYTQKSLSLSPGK
Method: as §1

[10] = target: T8, mB7-H4 (soluble mouse B7-H4, construct not named) (mouse, UniProt Q7TSP5 25-257, limits assumed); test: SPR (Biacore)
T8 sequence: T5 sequence
Method: as §2

[11] = target: T4, IgC domain of human B7-H4-Fc; test: ELISA, coated hB7-H4 IgC domain
[12] = target: T8, mB7-H4 (soluble mouse B7-H4, construct …); test: ELISA, mB7-H4
Method: as §1

[13] = target: T5, mouse B7-H4 expressed on cells; test: flow cytometry, mB7-H4/CT26 cells
Method: as §3

[14] = target: T9, human B7-H4-his (human, UniProt Q7Z7D3 25-259); test: ELISA, coated hB7-H4-his
T9 construct: also called hB7-H4-his; hB7-H4 his; not shown: his tag
T9 sequence: T2 sequence
Method: as §1

[15] = target: T10, mouse B7-H4-his (mouse, UniProt Q7TSP5 25-257); test: ELISA, coated mB7-H4-his (title on the sheet: Binding to mB7H4-his)
T10 construct: also called mB7-H4-his; mB7-H4-His; not shown: his tag
T10 sequence: T5 sequence
Method: as §1

[16] = target: T4, IgC domain of human B7-H4-Fc; test: ELISA, coated hB7-H4 IgC domain; remark: listed apart in the source
[17] = target: T8, mB7-H4 (soluble mouse B7-H4, construct …); test: ELISA, mB7-H4; remark: listed apart in the source
Method: as §1

[18] = target: T2, hB7-H4 (soluble human B7-H4, construct …); test: ELISA, hB7-H4; remark: listed apart in the source
Method: as §1

[19] = target: T11, IgV domain of human B7-H4-Fc (human); test: ELISA, coated hB7-H4 IgV domain
T11 construct: also called hB7-H4 IgV domain
T11 sequence (chain, as listed by the source): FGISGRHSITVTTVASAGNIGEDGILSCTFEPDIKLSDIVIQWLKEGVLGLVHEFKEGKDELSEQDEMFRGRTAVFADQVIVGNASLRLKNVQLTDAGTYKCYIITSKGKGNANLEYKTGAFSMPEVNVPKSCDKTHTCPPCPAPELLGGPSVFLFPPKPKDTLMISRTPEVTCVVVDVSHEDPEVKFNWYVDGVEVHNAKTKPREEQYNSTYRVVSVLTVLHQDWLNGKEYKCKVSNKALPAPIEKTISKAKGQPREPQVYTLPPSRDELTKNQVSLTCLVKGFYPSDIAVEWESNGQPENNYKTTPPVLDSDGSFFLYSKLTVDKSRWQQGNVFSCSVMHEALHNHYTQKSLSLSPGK

[20] = target: T2, hB7-H4 (soluble human B7-H4, construct …); test: SPR (Biacore); remark: listed apart in the source
[21] = target: T5, mouse B7-H4 expressed on cells; test: flow cytometry, mB7-H4/CT26 cells; remark: listed apart in the source
[22] = target: T3, human B7-H4 expressed on cells; test: flow cytometry, SK-BR-3 cells; remark: listed apart in the source
[23] = target: T8, mB7-H4 (soluble mouse B7-H4, construct …); test: SPR (Biacore); values equal to Table 11
[24] = target: T6, IgV domain of mouse B7-H4-Fc; test: ELISA, coated mB7-H4 IgV domain; remark: listed apart in the source

T1 sequence (chain, as listed by the source): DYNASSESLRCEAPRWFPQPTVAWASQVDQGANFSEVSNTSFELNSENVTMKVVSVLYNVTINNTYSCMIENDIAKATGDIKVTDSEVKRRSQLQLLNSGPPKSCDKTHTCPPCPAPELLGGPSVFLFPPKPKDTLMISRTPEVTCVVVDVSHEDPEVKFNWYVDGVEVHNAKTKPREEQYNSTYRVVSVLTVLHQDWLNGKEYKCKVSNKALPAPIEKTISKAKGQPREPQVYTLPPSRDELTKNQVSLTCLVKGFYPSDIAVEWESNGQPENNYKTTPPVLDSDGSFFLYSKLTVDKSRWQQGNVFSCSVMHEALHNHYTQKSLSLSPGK

B5: 9D11/67C3 (antibody, human IgG1, V domains shown)
VH: QVQLVQSGAEVKKPGASVKVSCKASGYTFTSYGISWVRQAPGQGLEWVGVINPNGGTTTYAQTFQGRVTMTRDTSTSTVYMELSSLRSEDTAVYYCARTGYSSGWAFDYWGRGTLVTVSS
VL: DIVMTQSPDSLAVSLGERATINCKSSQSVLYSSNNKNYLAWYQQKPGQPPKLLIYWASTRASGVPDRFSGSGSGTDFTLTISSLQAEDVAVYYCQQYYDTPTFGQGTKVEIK
notes: 9D11 VH with 67C3 VL
- binding result [9]: binds
- Kd [10]: 10.4 nM
- Kd [2]: 11.4 nM
- EC50 [3]: 4.06 nM
- EC50 [4]: 0.112 nM
- EC50 (read off the curve) [14]: ~0.2 nM
- EC50 (read off the curve) [15]: ~0.2 nM
- EC50 [12]: 0.086 nM
- EC50 [13]: 28.2 nM

B6: 9D11/67E12 (antibody, human IgG1, V domains shown)
VH: B5 VH
VL: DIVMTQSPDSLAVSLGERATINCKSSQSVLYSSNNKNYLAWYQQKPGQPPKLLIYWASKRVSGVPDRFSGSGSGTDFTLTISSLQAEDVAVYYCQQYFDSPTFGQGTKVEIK
notes: 9D11 VH with 67E12 VL
- binding result [9]: binds
- Kd [10]: 4.66 nM
- Kd [2]: 6.3 nM
- EC50 [3]: 8.08 nM
- EC50 [4]: 0.203 nM
- EC50 (read off the curve) [14]: ~0.2 nM
- EC50 (read off the curve) [15]: ~0.1 nM
- EC50 [12]: 0.11 nM
- EC50 [13]: 16.7 nM

B7: 9D11/68F5 (antibody, human IgG1, V domains shown)
VH: B5 VH
VL: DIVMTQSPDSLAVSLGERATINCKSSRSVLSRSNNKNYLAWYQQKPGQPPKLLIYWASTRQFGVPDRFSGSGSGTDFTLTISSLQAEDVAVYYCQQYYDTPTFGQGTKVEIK
notes: 9D11 VH with 68F5 VL
- EC50 (read off the curve) [16]: ~0.1 nM
- EC50 [17]: 0.144 nM
- EC50 [18]: 0.105 nM
- binding result [9]: binds
- Kd [10]: 5.96 nM
- Kd [2]: 7.15 nM
- EC50 [3]: 9.53 nM
- binding result [19]: no binding (tested: log 1 nM (10 nM))
- EC50 [4]: 0.778 nM
- EC50 (read off the curve) [14]: ~0.2 nM
- EC50 (read off the curve) [15]: ~0.1 nM
- Kd [20]: 2.96 nM
- EC50 [21]: 9.41 nM
- EC50 [12]: 0.145 nM
- EC50 [22]: 3.53 nM
- Kd [23]: 2.96 nM
- EC50 [13]: 31.8 nM
- binding result [24]: no binding (tested: log 1 nM (10 nM))

Now from value to binder, other results behind:

- Kd [2]: 0.015 nM
- EC50 [3]: 0.79 nM
- EC50 [4]: 0.056 nM
- EC50 (read off the curve) [6]: ~8 nM
B1: 3F2/49A2 (antibody, human IgG1, V domains shown)
VH: QVQLVQSGAEVKKPGASVKVSCKASGYTFTAQYMYWVRQAPGQGLEWMGRINPTSGNTVYAQKLQGRVTMTRDTSTSTVYMELSSLRSEDTAVYYCARGINWFDPWGQGTLVTVSS
VL: DIQMTQSPSSLSASVGDRVTITCRASQNIDTYVNWYQQKPGKAPKLLIYAASRLHTVPSRFSGSGSGTDFTLTISSLQPEDFATYYCQQSYTSPFTFGGGTKVEIK
notes: 3F2 VH with 49A2 VL
- binding result [1]: no binding (tested: axis value -8 (labelled log nM))
- binding result [5]: no binding (tested: axis value -8 (labelled log nM))
- binding result [7]: no binding (tested: axis value -8 (labelled log nM))

- binding result [8]: no binding (tested: log 1 nM (10 nM))
- binding result [9]: binds
- Kd [10]: 0.000219 nM
- Kd [2]: 0.779 nM
- EC50 [3]: 2.85 nM
- EC50 [4]: 0.061 nM
- binding result [11]: no binding (tested: log 1 nM (10 nM))
- EC50 [12]: 0.107 nM
- EC50 [13]: 1.67 nM
B2: 39A11/56H7 (antibody, human IgG1, V domains shown)
VH: EVQLLESGGGLVQPGGSLRLSCAASGFTFSSYGMHWVRQAPGKGLEWVASISSSSGYIYYADSVKGRFTISRDNSKNTLYLQMNSLRAEDTAVYYCARASSGMDVWGQGTTVTVSS
VL: DIQMTQSPSSLSASVGDRVTITCRASQSISSYLNWYQQKPGKAPKLLIYAASNLQSGVPSRFSGSGSGTDFTLTISSLQPEDFATYYCQQYYTTPLTFGQGTKLEIK
notes: 39A11 VH with 56H7 VL

- binding result [8]: no binding (tested: log 1 nM (10 nM))
- binding result [9]: binds
- Kd [10]: 0.00125 nM
- koff [10]: 6.22e-07 s⁻¹
- Kd [2]: 0.478 nM
- EC50 [3]: 2.07 nM
- EC50 [4]: 0.086 nM
- binding result [11]: no binding (tested: log 1 nM (10 nM))
- EC50 [12]: 0.128 nM
- EC50 [13]: 1.63 nM
B3: 39A11/57H3 (antibody, human IgG1, V domains shown)
VH: B2 VH
VL: B2 VL with R24Q, S28D, S30R, S31K, N53T, L54R, Q55E, T93S, T94L
notes: 39A11 VH with 57H3 VL

- binding result [8]: no binding (tested: log 1 nM (10 nM))
- binding result [9]: binds
- Kd [10]: 1.85 nM
- Kd [2]: 0.853 nM
- EC50 [3]: 1.31 nM
- EC50 [4]: 0.079 nM
- binding result [11]: no binding (tested: log 1 nM (10 nM))
- EC50 [12]: 0.124 nM
- EC50 [13]: 1.32 nM
B4: 39A11/62F9 (antibody, human IgG1, V domains shown)
VH: B2 VH
VL: B2 VL with I29V, Y32A, L33V, N34A, N53I, L54R, Q55E, T93S
notes: 39A11 VH with 62F9 VL
